In article PMC4890318:

Target: wild-type human dopamine transporter (human) (UniProt Q01959)
Sequence of UniProt Q01959 (Q01959 whole entry): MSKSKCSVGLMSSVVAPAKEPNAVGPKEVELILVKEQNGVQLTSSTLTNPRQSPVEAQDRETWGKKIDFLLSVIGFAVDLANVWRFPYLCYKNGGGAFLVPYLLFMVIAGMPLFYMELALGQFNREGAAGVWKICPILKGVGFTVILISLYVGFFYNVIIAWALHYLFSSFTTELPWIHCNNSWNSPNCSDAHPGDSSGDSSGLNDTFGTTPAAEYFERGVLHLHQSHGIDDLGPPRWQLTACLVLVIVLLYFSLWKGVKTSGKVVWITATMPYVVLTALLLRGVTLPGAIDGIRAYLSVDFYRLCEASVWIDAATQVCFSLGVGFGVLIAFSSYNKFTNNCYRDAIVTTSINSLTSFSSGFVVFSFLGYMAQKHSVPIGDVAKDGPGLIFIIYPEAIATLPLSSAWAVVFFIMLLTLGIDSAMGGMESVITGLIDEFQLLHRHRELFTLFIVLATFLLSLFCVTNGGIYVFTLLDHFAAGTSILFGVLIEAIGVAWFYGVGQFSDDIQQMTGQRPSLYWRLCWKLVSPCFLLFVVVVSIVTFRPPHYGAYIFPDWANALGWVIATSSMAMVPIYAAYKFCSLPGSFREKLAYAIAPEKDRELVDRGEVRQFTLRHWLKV

“recombinant HIV-1 Tat 1-86 (from UniProt P04608 1-86) (natural protein)” showed a decrease of [3H]DA uptake in PC12 cells transfected with WT hDAT after 20 min preincubation with 140 nM Tat1-86, against control without Tat of 35%.
